Data taken from PMC7721647, “The Human RNA Helicase DDX21 Presents a Dimerization Interface Necessary for Helicase Activity” (iScience, 2020).

How the values were obtained:
[1] = target: T1, DDX21ΔN (human, UniProt Q9NR30 186-783); assay: fluorescence polarization; 50 mM KCl; FP: 50 mM Tris pH 7.5, 50 mM KCl, 5 mM MgCl2, no ATP; Hill-slope fit; temperature not given in the material; settings: protein: recombinant; chain copies: 2; label: 5'-FAM; G4
T1 sequence: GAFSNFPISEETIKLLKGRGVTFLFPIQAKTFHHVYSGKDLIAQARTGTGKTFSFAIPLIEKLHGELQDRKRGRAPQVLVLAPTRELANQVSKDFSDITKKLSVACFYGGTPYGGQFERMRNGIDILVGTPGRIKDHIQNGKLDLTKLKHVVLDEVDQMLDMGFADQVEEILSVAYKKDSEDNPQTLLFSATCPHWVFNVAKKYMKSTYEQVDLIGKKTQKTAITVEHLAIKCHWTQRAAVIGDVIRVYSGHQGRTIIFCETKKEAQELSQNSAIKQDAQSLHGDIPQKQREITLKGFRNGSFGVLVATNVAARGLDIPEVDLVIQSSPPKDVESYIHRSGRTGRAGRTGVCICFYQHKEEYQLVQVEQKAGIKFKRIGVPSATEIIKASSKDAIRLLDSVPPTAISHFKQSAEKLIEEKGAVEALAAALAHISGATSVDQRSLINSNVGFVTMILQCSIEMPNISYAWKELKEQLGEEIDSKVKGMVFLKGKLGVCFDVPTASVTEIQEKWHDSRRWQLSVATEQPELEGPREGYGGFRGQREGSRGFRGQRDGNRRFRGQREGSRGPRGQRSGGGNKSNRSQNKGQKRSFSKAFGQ

[2] = target: T2, DDX21Fl (human, UniProt Q9NR30 1-783); assay: fluorescence polarization; no ATP; FP: 50 mM Tris pH 7.5, 50 mM KCl, 5 mM MgCl2, no ATP; Hill-slope fit; temperature not given in the material; settings: protein: recombinant, tags: N-terminal Trx-His6, cut with thrombin, chain copies: 2
T2 sequence: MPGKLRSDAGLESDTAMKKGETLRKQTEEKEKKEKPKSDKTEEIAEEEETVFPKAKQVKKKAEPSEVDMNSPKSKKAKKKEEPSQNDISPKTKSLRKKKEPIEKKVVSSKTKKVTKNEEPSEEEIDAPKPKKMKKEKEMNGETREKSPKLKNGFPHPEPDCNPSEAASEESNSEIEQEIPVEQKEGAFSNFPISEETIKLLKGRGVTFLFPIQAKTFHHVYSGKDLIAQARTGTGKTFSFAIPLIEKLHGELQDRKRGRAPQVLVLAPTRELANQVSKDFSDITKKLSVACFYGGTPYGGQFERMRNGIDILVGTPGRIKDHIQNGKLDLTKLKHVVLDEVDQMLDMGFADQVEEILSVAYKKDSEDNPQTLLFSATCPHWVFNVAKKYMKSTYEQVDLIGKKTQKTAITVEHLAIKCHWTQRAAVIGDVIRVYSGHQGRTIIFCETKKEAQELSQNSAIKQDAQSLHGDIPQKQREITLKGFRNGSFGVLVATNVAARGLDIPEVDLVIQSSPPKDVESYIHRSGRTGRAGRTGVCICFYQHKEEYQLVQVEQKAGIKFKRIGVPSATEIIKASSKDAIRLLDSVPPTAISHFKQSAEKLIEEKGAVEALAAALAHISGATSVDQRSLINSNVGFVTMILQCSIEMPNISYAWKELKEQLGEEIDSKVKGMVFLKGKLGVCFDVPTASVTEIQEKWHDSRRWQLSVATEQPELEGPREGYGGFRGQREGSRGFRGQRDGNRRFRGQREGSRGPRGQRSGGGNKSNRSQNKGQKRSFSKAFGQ

[3] = target: T3, DDX21ΔNC (human, UniProt Q9NR30 186-710); assay: fluorescence polarization; FP: 50 mM Tris pH 7.5, 50 mM KCl, 5 mM MgCl2, no ATP; Hill-slope fit; temperature not given in the material; settings: protein: recombinant, chain copies: 2
T3 sequence: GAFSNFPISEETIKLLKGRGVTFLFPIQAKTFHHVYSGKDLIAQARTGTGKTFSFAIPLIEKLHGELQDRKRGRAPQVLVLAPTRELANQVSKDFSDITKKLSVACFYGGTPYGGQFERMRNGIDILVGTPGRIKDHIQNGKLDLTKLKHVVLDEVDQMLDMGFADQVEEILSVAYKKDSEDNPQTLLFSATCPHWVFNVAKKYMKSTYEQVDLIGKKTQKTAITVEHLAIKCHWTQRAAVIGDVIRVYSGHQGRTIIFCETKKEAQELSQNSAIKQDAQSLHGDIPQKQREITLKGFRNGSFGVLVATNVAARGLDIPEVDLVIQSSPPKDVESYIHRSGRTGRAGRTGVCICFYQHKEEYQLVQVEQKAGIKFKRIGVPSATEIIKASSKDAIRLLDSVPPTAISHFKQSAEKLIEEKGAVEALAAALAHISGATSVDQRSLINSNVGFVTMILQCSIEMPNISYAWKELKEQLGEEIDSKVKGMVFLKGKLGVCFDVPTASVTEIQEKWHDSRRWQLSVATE

[4] = target: T4, DDX21Core (human, UniProt Q9NR30 186-564); assay: as above; settings: protein: recombinant
T4 sequence: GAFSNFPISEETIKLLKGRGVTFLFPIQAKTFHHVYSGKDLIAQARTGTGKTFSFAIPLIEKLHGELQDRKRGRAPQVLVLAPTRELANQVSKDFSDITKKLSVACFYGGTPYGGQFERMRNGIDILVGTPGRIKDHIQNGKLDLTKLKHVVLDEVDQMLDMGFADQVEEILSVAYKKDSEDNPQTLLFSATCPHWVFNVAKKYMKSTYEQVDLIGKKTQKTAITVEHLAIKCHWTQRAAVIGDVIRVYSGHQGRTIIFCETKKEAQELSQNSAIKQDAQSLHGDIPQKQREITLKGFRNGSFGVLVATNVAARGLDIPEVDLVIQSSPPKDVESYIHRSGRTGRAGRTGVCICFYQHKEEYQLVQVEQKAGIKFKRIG

[5] = label: 5'-FAM on 15-mer, 3' overhang 15 nt

## GUUGGGGCGGGCGUUGGGUUUGGGGGGACG (structured_RNA) [Q2 RNA G-quadruplex]
[1]
  Kd: 0.0076 ± 0.0005 µM

## GUUUCGGAUCGACGC (ssRNA) [15-mer ssRNA]
[2]; label: 5'-FAM, single strand
  Kd: 0.0307 ± 0.0028 µM
[3]; label: 5'-FAM, single strand
  Kd: 0.688 ± 0.0527 µM
[4]; label: 5'-FAM, single strand
  Kd: 1.53 ± 0.112 µM

B1: dsRNA 15/30mer 3' overhang (dsRNA)
RNA 1: GUUUCGGAUCGACGC
RNA 2: GCGUCGAUCCGAAACUAUACUUAAUUUUAA
[2]; [5]
  Kd: 0.0102 ± 0.0004 µM
[3]; [5]
  Kd: 0.217 ± 0.0104 µM
[4]; [5]
  Kd: 0.353 ± 0.0279 µM
